The text below walks through data of patent US20180280520A1 (NAVIGEN, published 2018).

B1: T108 (peptide)
peptide: YDPLVFPSDEFDASISQVNEKINQSLAFIRKSDEL
notes: domain: 35-residue RSV C-peptide T108; also called RSV C-peptide T108
B2: T118 (peptide)
peptide: FDASISQVNEKINQSLAFIRKSDELLHNVNAGKST
notes: also called RSV C-peptide T118
B3: CX10C-119 phage clone (peptide)
peptide: GACKIHDLFHWHDCAA
modifications: disulfide (positions not given here); not fully specified (bridges)
notes: also called CXC10C-119
B4: X16-18 phage clone (peptide)
peptide: SLKYWWMEELPLPKWW
B5: X12-47 phage clone (peptide)
peptide: SKVILPEPFWWP
B6: KKG-RSVP7-G(PEG6)-Tricasso (peptide)
peptide: KKGRWFELPEPEWWG
modifications: not fully specified; all D-amino acids; C-terminal PEG6 joined to the hub
B7: KG-RSVP7-G(PEG6)-Tricasso (peptide)
peptide: [dK]G[dR][dW][dF][dE][dL][dP][dE][dP][dE][dW][dW]G
modifications: not fully specified (C-terminus); printed as KG-RSVP7-G(PEG6)-Tricasso
B8: Ac-K(PEG6)-RSVP20-trimer (peptide)
peptide: Ac-KG[dA][dC][dR][dN][dE][dP][dH][dW][dL][dL][dD][dW][dC][dA][dA]-NH2
modifications: disulfide 4-15 (inferred); not fully specified (residue 1); printed as Ac-K(PEG6)-RSVP20-trimer; also: PEG6 after N-terminal K (side chain or backbone unclear), trimer
B9: Ac-K(PEG6)-RSVP21-trimer (peptide)
peptide: Ac-KG[dA][dC][dT][dN][dR][dA][dE][dW][dL][dI][dD][dW][dC][dA][dA]-NH2
modifications: disulfide 4-15 (inferred); not fully specified (residue 1); printed as Ac-K(PEG6)-RSVP21-trimer; also: PEG6 after N-terminal K (side chain or backbone unclear), trimer
B10: control phage displaying T108 (peptide)
peptide: B1 peptide
notes: domain: 35-residue RSV C-peptide T108
B11: Chol-Ac-K(PEG6)DDG-RSVP31-trimer (peptide)
peptide: Ac-[dK][PEG6′][dD][dD]G[dA][dE][dC][dV][dN][dR][dP][dE][dW][dL][dL][dD][dW][dC]G[dT]-NH2
modifications: disulfide 8-19; also: cholesterol conjugate, trimer
B12: Chol-Ac-K(PEG6)-RSVP20-trimer (peptide)
peptide: Ac-[dK][PEG6′]G[dA][dC][dR][dN][dE][dP][dH][dW][dL][dL][dD][dW][dC][dA][dA]-NH2
modifications: disulfide 5-16; also: cholesterol (Chol) conjugate, site not given here, trimer
B13: Ac-K(PEG6)DDG-RSVP24-trimer (peptide)
peptide: Ac-[dK][PEG6′][dD][dD]G[dS][dM][dC][dV][dN][dR][dP][dE][dW][dL][dL][dD][dW][dC]G[dT]-NH2
modifications: disulfide 8-19; also: trimer, linkage not given here
B14: Chol-Ac-K(PEG6)DDG-RSVP29-trimer (peptide)
peptide: Ac-[dK][PEG6′][dD][dD]G[dS][dA][dC][dV][dN][dR][dP][dE][dW][dL][dL][dD][dW][dC]G[dT]-NH2
modifications: disulfide 8-19; also: cholesterol conjugate, trimer
B15: Ac-KG-RSVP20 (peptide)
peptide: Ac-[dK]GG[dA][dC][dR][dN][dE][dP][dH][dW][dL][dL][dD][dW][dC][dA][dA]-NH2
modifications: disulfide 5-16
SMILES: CC(=O)N[C@H](CCCCN)C(=O)NCC(=O)NCC(=O)N[C@H](C)C(=O)N[C@@H]1CSSC[C@H](C(=O)N[C@H](C)C(=O)N[C@H](C)C(N)=O)NC(=O)[C@@H](Cc2c[nH]c3ccccc23)NC(=O)[C@@H](CC(=O)O)NC(=O)[C@@H](CC(C)C)NC(=O)[C@@H](CC(C)C)NC(=O)[C@@H](Cc2c[nH]c3ccccc23)NC(=O)[C@@H](Cc2c[nH]cn2)NC(=O)[C@H]2CCCN2C(=O)[C@@H](CCC(=O)O)NC(=O)[C@@H](CC(N)=O)NC(=O)[C@@H](CCCNC(=N)N)NC1=O
B16: Chol-Ac-K(PEG8)G-RSVP32-GDD-trimer (peptide)
peptide: Ac-[dK][PEG8′]GG[dE][dC][dV][dN][dR][dP][dE][dW][dL][dL][dD][dW][dC]G[dT]G[dD][dD]-NH2
modifications: disulfide 6-17; also: cholesterol conjugate, trimer
B17: Ac-RSVP24-GDD(PEG6)K-trimer (peptide)
peptide: Ac-[dS][dM][dC][dV][dN][dR][dP][dE][dW][dL][dL][dD][dW][dC]G[dT]G[dD][dD][PEG6′][dK]-NH2
modifications: disulfide 3-14; also: trimer, linkage not given here
B18: Chol-Ac-RSVP32-GDD(PEG4)K-trimer (peptide)
peptide: Ac-G[dE][dC][dV][dN][dR][dP][dE][dW][dL][dL][dD][dW][dC]G[dT]G[dD][dD][PEG4′][dK]-NH2
modifications: disulfide 3-14; also: cholesterol conjugate, trimer
B19: Chol-Ac-RSVP24-GDD(PEG6)K-trimer (peptide)
peptide: Ac-[dS][dM][dC][dV][dN][dR][dP][dE][dW][dL][dL][dD][dW][dC]G[dT]G[dD][dD][PEG6′][dK]-NH2
modifications: disulfide 3-14; also: cholesterol conjugate, trimer
B20: Chol-Ac-K(PEG6)DDG-RSVP28-trimer (peptide)
peptide: Ac-[dK][PEG6′][dD][dD]G[dH][dA][dC][dV][dN][dR][dP][dE][dW][dL][dL][dD][dW][dC][dD][dH]-NH2
modifications: disulfide 8-19; also: cholesterol conjugate, trimer
B21: RSVP32 with Gln at position 6 (peptide)
peptide: GECVNQPEWLLDWCGT
modifications: D-peptide; N-terminal acetyl; C-terminal amide
B22: Ac-K(PEG6)G-RSVP26-GRR-trimer (peptide)
peptide: Ac-[dK][PEG6′]G[dH][dA][dC][dV][dN][dR][dP][dE][dW][dL][dL][dD][dW][dC]G[dR]G[dR][dR]-NH2
modifications: disulfide 6-17; also: trimer, linkage not given here
B23: KKGAAAA-RSVP7-G(PEG6)-Tricasso (peptide)
peptide: KKGAAAARWFELPEPEWWG
modifications: not fully specified; all D-amino acids; C-terminal PEG6 joined to the hub
B24: Chol-Ac-K(PEG6)DDG-RSVP27-trimer (peptide)
peptide: Ac-[dK][PEG6′][dD][dD]G[dH][dE][dC][dV][dN][dR][dP][dE][dW][dL][dL][dD][dW][dC][dE][dH]-NH2
modifications: disulfide 8-19; also: cholesterol conjugate, trimer
B25: Chol-Ac-K(PEG6)DDG-RSVP26-trimer (peptide)
peptide: Ac-[dK][PEG6′][dD][dD]G[dH][dA][dC][dV][dN][dR][dP][dE][dW][dL][dL][dD][dW][dC]G[dR]-NH2
modifications: disulfide 8-19; also: cholesterol (Chol) conjugate, site not given here, trimer
B26: RSVP32 with shortened disulfide (peptide)
peptide: GEVCRPEWLLDWCGT
modifications: D-peptide; N-terminal acetyl; C-terminal amide
B27: Chol-Ac-K(PEG4)DDG-RSVP32-trimer (peptide)
peptide: Ac-[dK][PEG4′][dD][dD]GG[dE][dC][dV][dN][dR][dP][dE][dW][dL][dL][dD][dW][dC]G[dT]-NH2
modifications: disulfide 8-19; also: Chol, attachment not given here, trimer, linkage not given here
B28: Chol-Ac-K(PEG6)G-RSVP26-GRR-trimer (peptide)
peptide: Ac-[dK][PEG6′]G[dH][dA][dC][dV][dN][dR][dP][dE][dW][dL][dL][dD][dW][dC]G[dR]G[dR][dR]-NH2
modifications: disulfide 6-17; also: cholesterol conjugate, trimer

Numbering of substitutions follows the chain as printed. Values joined by “and” are separate entries in the source; they are usually repeats but may differ in a detail not shown here. Identical values can stand only once. Positions of bridges follow the written chain, without caps; N, C: chain ends. Non-standard residues stand in square brackets, D forms with d. Primed or numbered codes have the meaning given here. No end group written: not given here. PEG4′ = not defined here; PEG6′ = not defined here; PEG8′ = not defined here

Sequence of RSV F protein (RSV-A) (respiratory syncytial virus, RSV-A) (P03420 26-574): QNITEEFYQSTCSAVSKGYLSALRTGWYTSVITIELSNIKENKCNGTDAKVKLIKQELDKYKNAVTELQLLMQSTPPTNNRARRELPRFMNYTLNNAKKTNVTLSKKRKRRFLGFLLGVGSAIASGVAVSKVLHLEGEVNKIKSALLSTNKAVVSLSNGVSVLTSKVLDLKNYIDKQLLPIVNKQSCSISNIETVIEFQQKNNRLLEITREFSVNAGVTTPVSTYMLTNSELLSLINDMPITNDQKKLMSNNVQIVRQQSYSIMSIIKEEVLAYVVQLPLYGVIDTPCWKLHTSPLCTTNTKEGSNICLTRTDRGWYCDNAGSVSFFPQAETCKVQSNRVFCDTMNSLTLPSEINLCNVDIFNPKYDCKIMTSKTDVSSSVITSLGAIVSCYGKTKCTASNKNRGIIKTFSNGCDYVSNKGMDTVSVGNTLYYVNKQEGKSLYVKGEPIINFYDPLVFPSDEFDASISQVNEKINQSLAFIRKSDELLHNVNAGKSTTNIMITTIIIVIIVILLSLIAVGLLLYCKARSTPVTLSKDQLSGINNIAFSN

The target of one assay is T1, BPEG2-GKG-RSVB-IZN45 Full Mut (respiratory syncytial virus, RSV-B, N-terminal biotinPEG2; C-terminal amide).
T1 construct: also called IZN45_Mut; mutant target
T1 chain: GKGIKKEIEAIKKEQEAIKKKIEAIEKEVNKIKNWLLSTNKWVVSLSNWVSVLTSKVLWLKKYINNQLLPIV
The experiment in a line: SPR. A general note: Surface plasmon resonance follows binding to a sensor surface in real time, without labels.
Turning to B1, the binding result was “no binding”. On the same count and under the same terms, to B2 belongs “no binding”.

In the next assay the target is T1, BPEG2-GKG-RSVB-IZN45 Full Mut. The experiment in a line: phage ELISA of clonal phage, percent bound. For orientation: In an ELISA, binding on a coated surface is turned into a signal by an enzyme label.
With B3, the binding result is on record as “no binding”. Same read-out and setting: to B4 belongs “no binding”; to B5, “no binding”.

The target of the next assay is T2, IZN45_WT_Bot (N-terminal biotinPEG2; C-terminal amide).
T2 construct: also called BPEG2-GKG-RSVB-IZN45 wt bot
T2 N-trimer mimic monomer (IZ fused to N45, partial groove mutant): T1 chain with W49G, W59D, K62N
Briefly: phage ELISA of clonal phage, percent bound.
For the molecule B4, the binding result is recorded as “no binding”.

For a further assay, the target named is RSV F protein (RSV-A) (respiratory syncytial virus, RSV-A, UniProt P03420 26-574). The experiment in a line: cell-based or functional assay.
In the case of B6, the “IC50, syncytia reduction assay” value was 4800 nM and 4500 nM. Regarding B7, the “IC50, syncytia reduction assay” value was 18400 nM.

Consider B8, for which the “IC50, syncytia reduction assay” value was 55000 nM and 19000 nM. Same read-out and setting: next, B9: 65000 nM.

Another assay deals with T1, BPEG2-GKG-RSVB-IZN45 Full Mut. The experiment in a line: phage ELISA.
In the case of B10, the binding result is given as “no binding”.

The next assay concerns the target T3, BPEG2-GKG-RSVB-IZN45 (respiratory syncytial virus, RSV-B, N-terminal biotinPEG2; C-terminal amide).
T3 chain: T1 chain with W35A, W42A, W49G, W59D, K62N
The experiment in a line: SPR, biotinylated L-IZN45 on NeutrAvidin chip.
Take B2: the Kd (commonly the concentration at which binding is half-saturated) was around 1 nM.

The next assay addresses RSV F protein (RSV-A) (respiratory syncytial virus, RSV-A) (UniProt P03420). The experiment in a line: cell-based or functional assay.
Take B11: the IC50, syncytia reduction assay is 65 nM and 54 nM and 24 nM. On the same count and under the same terms, next, B12: 7900 nM.

Molecule B13 yielded an IC50, syncytia reduction assay of 5500 nM.

In the case of B14, the IC50, syncytia reduction assay is 120 nM and 100 nM. Same read-out and setting: next, B15: 673000 nM.

Regarding B16, the IC50, syncytia reduction assay is 24 nM and 8 nM.

B17 came in with an IC50, syncytia reduction assay of 4600 nM. The same measure, in the same setting: to B18 belongs 37 nM and 52 nM and 95 nM; to B19, 97 nM. B20 yielded an IC50, syncytia reduction assay of 240 nM. B21 had a potency of 53 nM and a potency, fold decrease compared to RSVP32 of 2 fold. Molecule B22 returned an IC50, syncytia reduction assay of 5500 nM. The same measure, in the same setting: next, B23: 13900 nM and 7400 nM; B24: 140 nM and 90 nM and 88 nM. The molecule B25 displayed an IC50, syncytia reduction assay of 3200 nM. Molecule B26 showed a potency of 360 nM and a potency, fold decrease compared to RSVP32 of 14.4 fold. B27: the IC50, syncytia reduction assay was 28 nM and 16 nM and 11 nM. Turning to B28, the IC50, syncytia reduction assay turned out to be 490 nM.
